Reference: patent publication US20170015742A1 (published 2017)

Tests used:
[1] = target: recombinant human VEGF165 (human, UniProt P15692 207-395); assay: cell-based or functional assay
[2] = target: recombinant human PDGF-BB (human, UniProt P01127 82-190); assay: cell-based or functional assay
recombinant human PDGF-BB, sequence (P01127 82-190 limits assumed): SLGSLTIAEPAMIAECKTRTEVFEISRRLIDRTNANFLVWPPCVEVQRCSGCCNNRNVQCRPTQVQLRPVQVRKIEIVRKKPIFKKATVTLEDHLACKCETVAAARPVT

recombinant human VEGF165, sequence (P15692 other isoform, or with tags, fused parts or gaps limits assumed): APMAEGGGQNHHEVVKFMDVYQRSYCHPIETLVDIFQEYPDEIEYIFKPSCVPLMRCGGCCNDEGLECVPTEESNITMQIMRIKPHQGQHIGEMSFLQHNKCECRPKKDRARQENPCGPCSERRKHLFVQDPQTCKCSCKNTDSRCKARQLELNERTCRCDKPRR

| Potency IC50 (nM) HMVEC-d hVEGF165 [1] [nM] | Potency IC50 (nM) NIH-3T3 hPDGF-BB [2] [nM] | Binder |
| --- | --- | --- |
| 0.084 | 1.54 | 1B10.1_GS_3E2.1 (bispecific antibody, human IgG1, kappa, L234A L235A) heavy: EVQLVESGGGLVQPGGSLRLSCAASGFSFSKYDMAWFRQAPGKGLEWVASITTSGVGTYYRDSVKGRFTVSRDNAKSTLYLQMNSLRAEDTAVYYCARGYGAMDAWGQGTTVTVSSGGGGSGGGGSEVQLVQSGAEVKKPGSSVKVSCKASGYTFTESYMYWVKQAPGQGLELIGRIDPEDGSTDYVEKFKNKATLTADKSTSTAYMELSSLRSEDTAVYFCARFGARSYFYPMDAWGQGTTVTVSSASTKGPSVFPLAPSSKSTSGGTAALGCLVKDYFPEPVTVSWNSGALTSGVHTFPAVLQSSGLYSLSSVVTVPSSSLGTQTYICNVNHKPSNTKVDKKVEPKSCDKTHTCPPCPAPEAAGGPSVFLFPPKPKDTLMISRTPEVTCVVVDVSHEDPEVKFNWYVDGVEVHNAKTKPREEQYNSTYRVVSVLTVLHQDWLNGKEYKCKVSNKALPAPIEKTISKAKGQPREPQVYTLPPSREEMTKNQVSLTCLVKGFYPSDIAVEWESNGQPENNYKTTPPVLDSDGSFFLYSKLTVDKSRWQQGNVFSCSVMHEALHNAYTQKSLSLSPGK light: DIQMTQSPSSLSASVGDRVTITCKASQDIDDYLSWYQQKPGKSPKLVIYAATRLADGVPSRFSGSGSGTDYTLTISSLQPEDFATYYCLQSSSTPWTFGGGTKVEIKGGSGGGGSGGETVLTQSPATLSLSPGERATLSCRASESVSTLMHWYQQKPGQQPRLLIYGASNLESGVPARFSGSGSGTDFTLTISSLEPEDFAVYFCQQSWNDPWTFGGGTKVEIKRTVAAPSVFIFPPSDEQLKSGTASVVCLLNNFYPREAKVQWKVDNALQSGNSQESVTEQDSKDSTYSLSSTLTLSKADYEKHKVYACEVTHQGLSSPVTKSFNRGEC |
| 0.05 | 0.037 | 1B10.1_GS_CL-33675 (bispecific antibody, human IgG1, kappa, L234A L235A) heavy: EVQLVESGGGLVQPGGSLRLSCAASGFSFSKYDMAWFRQAPGKGLEWVASITTSGVGTYYRDSVKGRFTVSRDNAKSTLYLQMNSLRAEDTAVYYCARGYGAMDAWGQGTTVTVSSGGGGSGGGGSEVTLRESGPALVKPTQTLTLTCTFSGFSLSTYGMGVGWIRQPPGKALEWLANIWWDDDKYYNPSLKNRLTISKDTSKNQVVLTMTNMDPVDTATYYCARIESSGPKYSFDYWGQGTMVTVSSASTKGPSVFPLAPSSKSTSGGTAALGCLVKDYFPEPVTVSWNSGALTSGVHTFPAVLQSSGLYSLSSVVTVPSSSLGTQTYICNVNHKPSNTKVDKKVEPKSCDKTHTCPPCPAPEAAGGPSVFLFPPKPKDTLMISRTPEVTCVVVDVSHEDPEVKFNWYVDGVEVHNAKTKPREEQYNSTYRVVSVLTVLHQDWLNGKEYKCKVSNKALPAPIEKTISKAKGQPREPQVYTLPPSREEMTKNQVSLTCLVKGFYPSDIAVEWESNGQPENNYKTTPPVLDSDGSFFLYSKLTVDKSRWQQGNVFSCSVMHEALHNAYTQKSLSLSPGK light: DIQMTQSPSSLSASVGDRVTITCKASQDIDDYLSWYQQKPGKSPKLVIYAATRLADGVPSRFSGSGSGTDYTLTISSLQPEDFATYYCLQSSSTPWTFGGGTKVEIKGGSGGGGSGGEIVLTQSPGTLSLSPGERATLSCRASSGSIWYSFVSWYQQKPGQAPRLLIYADDQRASGIPDRFSGSGSGTDFTLTISRLEPEDFAVYYCQSYGINIDVVFGGGTKVEIKRTVAAPSVFIFPPSDEQLKSGTASVVCLLNNFYPREAKVQWKVDNALQSGNSQESVTEQDSKDSTYSLSSTLTLSKADYEKHKVYACEVTHQGLSSPVTKSFNRGEC |
